The text below walks through data of patent publication US20230235072A1 (DENALI THERAPEUTICS, published 2023).

Where two headings read alike, the source gives them in different places.

For experiment [1], the target named is T1, cynomolgus transferrin receptor (TfR) ectodomain (ECD) (cynomolgus, UniProt Q5RDH6 121-760 (Pongo abelii entry), biotinylated where captured on streptavidin).
T1 construct: also called cyno TfR; cynoTfR
T1 chain: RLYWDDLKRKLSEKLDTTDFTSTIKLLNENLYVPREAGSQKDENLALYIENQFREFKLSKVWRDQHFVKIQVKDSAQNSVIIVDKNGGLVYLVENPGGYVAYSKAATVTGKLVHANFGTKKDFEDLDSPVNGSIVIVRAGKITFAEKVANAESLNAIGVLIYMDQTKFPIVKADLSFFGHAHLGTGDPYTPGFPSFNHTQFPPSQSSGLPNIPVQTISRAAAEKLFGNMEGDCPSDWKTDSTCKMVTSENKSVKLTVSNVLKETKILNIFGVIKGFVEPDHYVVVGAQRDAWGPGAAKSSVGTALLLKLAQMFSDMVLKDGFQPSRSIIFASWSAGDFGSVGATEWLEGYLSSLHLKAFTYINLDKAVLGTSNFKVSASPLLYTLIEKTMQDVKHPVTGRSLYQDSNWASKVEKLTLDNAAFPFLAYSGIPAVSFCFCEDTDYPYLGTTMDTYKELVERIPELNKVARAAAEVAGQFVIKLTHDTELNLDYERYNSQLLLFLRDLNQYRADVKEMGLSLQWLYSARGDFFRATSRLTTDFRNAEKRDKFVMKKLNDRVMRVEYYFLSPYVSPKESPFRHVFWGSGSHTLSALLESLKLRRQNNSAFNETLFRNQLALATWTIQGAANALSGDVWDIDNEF
Nature of the experiment: phage ELISA: Fc variant on phage, titrated by OD268 of the phage solution on plate-coated cyno TfR; OD650. For orientation: ELISA stands for enzyme-linked immunosorbent assay.

For experiment [2], the target named is T2, human transferrin receptor (TfR) ectodomain (ECD) (human, UniProt P02786 121-760, biotinylated where captured on streptavidin).
T2 construct: also called human TfR; huTfR
Nature of the experiment: phage ELISA: phage at about its EC50 on plate-coated human TfR with soluble holo-Tf added at 0.007-5 uM; OD650.

In experiment [3] the target is T1, cynomolgus transferrin receptor (TfR) …. Put plainly: phage ELISA: Fc variant on phage, titrated by OD268 of the phage solution on plate-coated cyno TfR; OD650.
The target is the same in experiment [4]. The description is as above.
Experiment [5] has as its target T2, human transferrin receptor (TfR) …. Put plainly: competition phage ELISA: phage-displayed clone at about its EC50 on plate-coated human TfR, soluble human TfR varied as competitor; OD650.

B1: Clone CH2A2.4 (designed binder)
chain: PCPAPELLGGPSVFLFPPKPKDTLMISRTPEVTCVVVDVSHEDPEVSFEWYVDGVPVRWEWQWPREEQYNSTYRVVSVLTVLHQDWLNGKEYKCKVSNKALPAPIEKTISKAKGQPREPQVYTLPPSRDELTKNQVSLTCLVKGFYPSDIAVEWESNGQPENNYKTTPPVLDSDGSFFLYSKLTVDKSRWQQGNVFSCSVMHEALHNHYTQKSLSLSPGK
Take B1: the binding result in experiment [1] and in experiment [2] was “binds” in each case.

B2: Clone CH2A2.16 (designed binder)
chain: PCPAPELLGGPSVFLFPPKPKDTLMISRTPEVTCVVVDVSHEDPEVWFEWYVDGVFVGVAYDVPREEQYNSTYRVVSVLTVLHQDWLNGKEYKCKVSNKALPAPIEKTISKAKGQPREPQVYTLPPSRDELTKNQVSLTCLVKGFYPSDIAVEWESNGQPENNYKTTPPVLDSDGSFFLYSKLTVDKSRWQQGNVFSCSVMHEALHNHYTQKSLSLSPGK
As for B2, the binding result in experiment [3] was “no binding (tested: OD268 1 (phage solution))”; in experiment [2] it was “binds”.

B3: Clone CH2A2.1 (designed binder)
chain: PCPAPELLGGPSVFLFPPKPKDTLMISRTPEVTCVVVDVSHEDPEVEFIWYVDGVDVRYEWQLPREEQYNSTYRVVSVLTVLHQDWLNGKEYKCKVSNKALPAPIEKTISKAKGQPREPQVYTLPPSRDELTKNQVSLTCLVKGFYPSDIAVEWESNGQPENNYKTTPPVLDSDGSFFLYSKLTVDKSRWQQGNVFSCSVMHEALHNHYTQKSLSLSPGK
For the molecule B3, the binding result in experiment [4] and in experiment [5] was “binds” in each case.
